Two variants from IntAct's records for PubMed 16696976 can be followed below.

To fix the notation:
B1: Amphiphysin (Homo sapiens), P49418 (parent)
chain: MADIKTGIFAKNVQKRLNRAQEKVLQKLGKADETKDEQFEEYVQNFKRQEAEGTRLQRELRGYLAAIKGMQEASMKLTESLHEVYEPDWYGREDVKMVGEKCDVLWEDFHQKLVDGSLLTLDTYLGQFPDIKNRIAKRSRKLVDYDSARHHLEALQSSKRKDESRISKAEEEFQKAQKVFEEFNVDLQEELPSLWSRRVGFYVNTFKNVSSLEAKFHKEIAVLCHKLYEVMTKLGDQHADKAFTIQGAPSDSGPLRIAKTPSPPEEPSPLPSPTASPNHTLAPASPAPARPRSPSQTRKGPPVPPLPKVTPTKELQQENIISFFEDNFVPEISVTTPSQNEVPEVKKEETLLDLDFDPFKPEVTPAGSAGVTHSPMSQTLPWDLWTTSTDLVQPASGGSFNGFTQPQDTSLFTMQTDQSMICNLAESEQAPPTEPKAEEPLAAVTPAVGLDLGMDTRAEEPVEEAVIIPGADADAAVGTLVSAAEGAPGEEAEAEKATVPAGEGVSLEEAKIGTETTEGAESAQPEAEELEATVPQEKVIPSVVIEPASNHEEEGENEITIGAEPKETTEDAAPPGPTSETPELATEQKPIQDPQPTPSAPAMGAADQLASAREASQELPPGFLYKVETLHDFEAANSDELTLQRGDVVLVVPSDSEADQDAGWLVGVKESDWLQYRDLATYKGLFPENFTRRLD
partner: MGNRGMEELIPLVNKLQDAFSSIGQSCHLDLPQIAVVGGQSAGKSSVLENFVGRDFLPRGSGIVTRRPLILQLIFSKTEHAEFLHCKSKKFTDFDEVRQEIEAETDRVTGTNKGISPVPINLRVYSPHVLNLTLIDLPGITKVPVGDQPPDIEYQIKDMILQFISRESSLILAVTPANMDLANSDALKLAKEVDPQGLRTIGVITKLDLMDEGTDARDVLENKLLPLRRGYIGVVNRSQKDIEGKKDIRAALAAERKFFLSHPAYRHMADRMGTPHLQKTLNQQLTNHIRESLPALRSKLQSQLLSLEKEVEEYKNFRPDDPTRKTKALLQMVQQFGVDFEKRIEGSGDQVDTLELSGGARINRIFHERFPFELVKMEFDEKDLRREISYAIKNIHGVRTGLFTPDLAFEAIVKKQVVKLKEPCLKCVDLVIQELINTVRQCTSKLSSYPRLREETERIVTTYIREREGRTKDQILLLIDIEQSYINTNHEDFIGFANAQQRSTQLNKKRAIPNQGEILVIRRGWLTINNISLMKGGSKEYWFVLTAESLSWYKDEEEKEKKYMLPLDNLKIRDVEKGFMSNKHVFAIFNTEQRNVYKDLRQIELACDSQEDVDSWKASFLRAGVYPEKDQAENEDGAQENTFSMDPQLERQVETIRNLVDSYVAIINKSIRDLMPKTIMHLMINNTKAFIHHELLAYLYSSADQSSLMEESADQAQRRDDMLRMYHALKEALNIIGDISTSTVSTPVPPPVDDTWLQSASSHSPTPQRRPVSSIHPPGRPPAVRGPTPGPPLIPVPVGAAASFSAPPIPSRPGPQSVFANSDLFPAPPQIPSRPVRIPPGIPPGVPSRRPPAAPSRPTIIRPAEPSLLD

This experiment covers variants of B1. Conditions: with dyn2_human DNM2, P50570.
Consider P687L, for which the “effect of a mutation on the interaction” value is “disrupting interaction”.

Turning to G684R, the “effect of a mutation on the interaction” value is “disrupting interaction”.
